The text below walks through data of patent US20160305947A1 (Merck Sharp & Dohme, published 2016).

For this test, the target named is T1, human PD-L1 (Programmed Cell Death 1 Ligand 1) (human, UniProt Q9NZQ7 19-290).
T1 construct: whole, on cells; The target is the endogenous protein in FFPE tumor tissue after antigen retrieval, not a recombinant construct; also called B7-H1; PDCD1L1
Kind of test: IHC staining of FFPE human melanoma sections (chromogenic DAB and TSA fluorescence). As to the method:
After deparaffinization, antigens were retrieved by immersing the slides into Flex TRS (high pH) and allowing the temperature inside the PT Link to reach 97° C. for 20 minutes. Once this time elapsed, the chamber temperature was cooled to 75° C. Slides were removed from the PT Link and cooled to room temperature in Flex wash buffer.
Single parameter chromogenic immunohistochemical staining was performed using a mouse monoclonal anti-PD-L1 antibody (clone 22C3) and the brown DAB chromogen (FIG. 1, left column) Multiparametric fluorescence immunohistochemistry was performed using the protocol detailed in Example 1. In brief, formalin-fixed paraffin-embedded sections were stained using an anti-PD1 antibody (polyclonal goat anti-hPD-1, green) and an anti-PD-L1 antibody (clone 22C3, red). Representative patterns of PD-1 and PD-L1 are depicted in the images in the right-hand column. […] PD-L1 can be identified as being either (1) spatially apart from PD-1+ T cells (A, right); (2) associated with a minimal PD-1+ infiltrate (B, right); (3) expressed in the absence of concomitant PD-1+ T cells (C, right); or (4) strongly expressed in tight spatial proximity to PD-1+CD8 T cells (D, right).

T1 sequence (Q9NZQ7 19-290): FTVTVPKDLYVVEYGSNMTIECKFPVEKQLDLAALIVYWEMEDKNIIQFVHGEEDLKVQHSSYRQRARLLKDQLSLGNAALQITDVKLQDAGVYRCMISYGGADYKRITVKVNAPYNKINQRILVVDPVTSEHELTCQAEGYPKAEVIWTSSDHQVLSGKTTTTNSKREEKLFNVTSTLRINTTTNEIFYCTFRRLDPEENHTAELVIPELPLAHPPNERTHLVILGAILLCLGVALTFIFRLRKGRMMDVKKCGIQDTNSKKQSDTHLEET

B1: Mouse anti-human PD-L1 mAb (Clone 22C3) (antibody, mouse IgG1, kappa, V domains shown)
VH: QVHLQQSGAELAKPGASVKMSCKASGYTFTSYWIHWIKQRPGQGLEWIGYINPSSGYHEYNQKFIDKATLTADRSSSTAYMHLTSLTSEDSAVYYCARSGWLIHGDYYFDFWGQGTTLTVSS
VL: DIVMSQSPSSLAVSAGEKVTMTCKSSQSLLHTSTRKNYLAWYQQKPGQSPKLLIYWASTRESGVPDRFTGSGSGTDFTLTISSVQAEDLAVYYCKQSYDVVTFGAGTKLELKR
notes: Mouse IgG1, made in house, used at 2 ug/mL as the primary antibody in IHC; also called antibody 22C3; mouse monoclonal anti-PD-L1 antibody (clone 22C3)
For B1, the binding result is given as “binds”.
